Measurements as given in publication PMC8480326, “Chemoenzymatic glycan-selective remodeling of a therapeutic lysosomal enzyme with high-affinity M6P-glycan ligands. Enzyme substrate specificity is the name of the game” (Chemical Science, 2021).

Molecular target: T1, Recombinant human IGF-II R (CI-MPR) (Homo sapiens, UniProt P11717)
T1 construct: purchased R&D Systems
Assay: SPR binding to immobilized CI-MPR
Protocol: Surface Plasmon Resonance (SPR) Measurements. SPR measurements were performed on a Biacore T200 instrument (GE Healthcare). Recombinant human IGF-II R (CI-MPR) was purchased
from R&D Systems. Approximately 7000 resonance units (RU) of CI-MPR was immobilized on a
CM5 sensor chip in a sodium acetate buffer (25 μg/mL, pH 4.0) at 25 °C, using the amine coupling kit
provided by the manufacturer. Mannose 6-phosphate containing glycopeptides or glycoproteins were
determined at 25 °C under a flow rate of 10 μL/min. HBS-P+ buffer (10 mM HEPES, 150 mM NaCl,
0.05% surfactant P20, pH 7.4) was used as sample buffer and running buffer. Association was
measured for 3 min and dissociation for 10 min at same flow rate (10 μL/min). The surface
and glycoprotein analytes flowed over an immobilized chip with 2-fold serial dilution of the highest
concentration of 4 μM (for glycopeptides) or 1 μM (for RNase B) or 250 nM (for rhGAA).
analyses were performed by global fitting of the binding data to a 1:1 Langmuir binding model using

T1 sequence (P11717 41-2491): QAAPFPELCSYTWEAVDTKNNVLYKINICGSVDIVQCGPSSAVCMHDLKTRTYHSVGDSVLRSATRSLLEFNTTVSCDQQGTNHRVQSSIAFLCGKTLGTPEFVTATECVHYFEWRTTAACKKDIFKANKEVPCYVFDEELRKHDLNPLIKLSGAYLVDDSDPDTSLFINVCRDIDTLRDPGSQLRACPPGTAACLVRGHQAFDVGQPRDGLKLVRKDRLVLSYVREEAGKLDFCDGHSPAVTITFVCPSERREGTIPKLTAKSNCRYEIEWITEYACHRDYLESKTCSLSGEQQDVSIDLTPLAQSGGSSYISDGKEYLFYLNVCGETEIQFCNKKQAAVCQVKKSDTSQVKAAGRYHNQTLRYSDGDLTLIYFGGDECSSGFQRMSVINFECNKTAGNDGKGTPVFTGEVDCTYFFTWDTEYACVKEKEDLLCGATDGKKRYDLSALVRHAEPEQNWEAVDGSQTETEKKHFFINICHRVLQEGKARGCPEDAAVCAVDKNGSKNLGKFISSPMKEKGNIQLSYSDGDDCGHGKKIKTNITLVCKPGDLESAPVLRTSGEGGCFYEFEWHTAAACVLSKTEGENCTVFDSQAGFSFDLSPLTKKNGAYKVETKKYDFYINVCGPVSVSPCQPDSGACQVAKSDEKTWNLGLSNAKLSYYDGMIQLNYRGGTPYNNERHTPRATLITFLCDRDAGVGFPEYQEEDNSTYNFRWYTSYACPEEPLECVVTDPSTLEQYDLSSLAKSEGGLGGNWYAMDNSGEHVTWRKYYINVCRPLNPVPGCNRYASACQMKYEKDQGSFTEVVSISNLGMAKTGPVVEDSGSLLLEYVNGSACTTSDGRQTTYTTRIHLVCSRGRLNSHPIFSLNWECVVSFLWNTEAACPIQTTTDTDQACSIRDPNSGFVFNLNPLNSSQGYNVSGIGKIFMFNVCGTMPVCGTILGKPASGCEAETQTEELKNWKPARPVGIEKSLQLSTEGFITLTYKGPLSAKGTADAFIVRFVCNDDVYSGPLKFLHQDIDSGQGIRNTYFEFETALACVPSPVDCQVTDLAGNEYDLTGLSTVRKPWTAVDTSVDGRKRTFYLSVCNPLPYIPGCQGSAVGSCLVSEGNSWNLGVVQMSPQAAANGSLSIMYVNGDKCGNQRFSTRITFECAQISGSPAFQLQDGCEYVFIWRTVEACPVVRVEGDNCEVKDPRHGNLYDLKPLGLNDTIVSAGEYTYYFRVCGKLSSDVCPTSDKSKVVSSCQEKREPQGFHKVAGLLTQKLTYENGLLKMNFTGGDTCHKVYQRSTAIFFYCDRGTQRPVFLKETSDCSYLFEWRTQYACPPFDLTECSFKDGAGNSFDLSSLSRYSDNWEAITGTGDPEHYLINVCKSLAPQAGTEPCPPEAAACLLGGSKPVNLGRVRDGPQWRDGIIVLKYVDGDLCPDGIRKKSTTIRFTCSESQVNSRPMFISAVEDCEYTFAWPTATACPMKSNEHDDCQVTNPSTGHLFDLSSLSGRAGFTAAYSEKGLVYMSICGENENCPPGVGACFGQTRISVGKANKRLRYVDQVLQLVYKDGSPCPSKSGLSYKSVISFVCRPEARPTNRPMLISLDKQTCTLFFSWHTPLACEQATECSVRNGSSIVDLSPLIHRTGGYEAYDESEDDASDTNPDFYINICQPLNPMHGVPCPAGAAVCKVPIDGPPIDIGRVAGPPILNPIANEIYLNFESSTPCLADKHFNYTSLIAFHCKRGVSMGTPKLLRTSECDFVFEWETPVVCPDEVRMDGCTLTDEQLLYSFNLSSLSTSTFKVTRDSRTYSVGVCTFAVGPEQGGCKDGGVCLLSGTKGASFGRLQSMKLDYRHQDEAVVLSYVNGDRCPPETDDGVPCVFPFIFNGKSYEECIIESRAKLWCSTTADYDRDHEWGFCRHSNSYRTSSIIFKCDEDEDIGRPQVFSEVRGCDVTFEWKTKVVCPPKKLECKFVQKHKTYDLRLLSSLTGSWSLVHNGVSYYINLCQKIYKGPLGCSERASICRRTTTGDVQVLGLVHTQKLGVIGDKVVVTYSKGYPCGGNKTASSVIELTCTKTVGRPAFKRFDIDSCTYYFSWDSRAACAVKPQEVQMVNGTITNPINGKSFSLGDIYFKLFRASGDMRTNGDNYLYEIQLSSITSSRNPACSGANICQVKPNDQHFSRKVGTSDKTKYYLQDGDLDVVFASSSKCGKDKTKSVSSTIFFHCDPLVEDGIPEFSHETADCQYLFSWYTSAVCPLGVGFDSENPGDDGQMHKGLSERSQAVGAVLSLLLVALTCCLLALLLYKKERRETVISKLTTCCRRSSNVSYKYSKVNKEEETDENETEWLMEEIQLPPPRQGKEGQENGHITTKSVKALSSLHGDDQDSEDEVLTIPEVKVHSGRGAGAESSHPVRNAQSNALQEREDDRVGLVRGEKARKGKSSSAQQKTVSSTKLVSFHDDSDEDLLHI

Kd (SPR, immobilized CI-MPR, 25 °C, average of three independent experiments): 15.8 nM | Ka (representative SPR sensorgram, 1:1 Langmuir fit, association constant): 6.877E+4 | Kd (representative SPR sensorgram, single experiment): 15.5 nM
B1: 68: M6P-containing RNase B, remodeled with tetrasaccharide oxazoline 8 by Endo-A (protein, UniProt P61823 27-150, looked up)
Ribonuclease pancreatic: KETAAAKFERQHMDSSTSAASSSNYCNQMMKSRNLTKDRCKPVNTFVHESLADVQAVCSQKNVACKNGQTNCYQSYSTMSITDCRETGSSKYPNCAYKTTQANKHIIVACEGNPYVPVHFDASV
modifications: M6P-tetrasaccharide glycan remodeled by Endo-A
notes: M6P-containing RNase B, remodeled with tetrasaccharide oxazoline 8 by Endo-A
